This is an account of results in patent publication US20260102474A1 (published 2026).

Assay in all cases: competition
Test [1] deals with SARS-COV-2 full-length trimeric spike protein, Beta (B1.351) (SARS-COV-2).
Test [2] concerns the target SARS-COV-2 full-length trimeric spike protein, Delta (B.1.617.2) (SARS-COV-2).
For test [3], the target named is Trimeric S-protein corresponding to Omicron (B.1.1.529) (SARS-COV-2).
The target of test [4] is SARS-COV-2 full-length trimeric spike protein, Alpha (B.1.1.7) (SARS-COV-2).
Test [5] addresses SARS-COV-2 full-length trimeric spike protein, Gamma (P.1) (SARS-COV-2).

Changes are numbered by the printed parent chain.

The term IC50 denotes the concentration that gives 50% inhibition. Lower therefore signals higher potency.

B1: ACE2-M2-FcKO (Fc fusion)
chain: STIEEQAKYFLDYFNVQAEDLFYQSSLASWNYNTNITEENVQNMNNAGDKWSAFLKEQSTYAQRYPLQEIQNLTVKLQLQALQQNGSSVLSEDKSKRLNTILNTMSTIYSTGKVCNPDNPQECLLLEPGLNEIMANSLDYNERLWAWESWRSEVGKQLRPLYEEYVVLKNEMARANHYEDYGDYWRGDYEVNGVDGYDYSRGQLIEDVEHTFEEIKPLYEHLHAYVRAKLMNAYPSYISPIGCLPAHLLGDMWGRFWTNLYSLTVPFGQKPNIDVTDAMVDQAWDAQRIFKEAEKFFVSVGLPNMTQGFWEYSMLTDPGNVQKAVCHPTAWDLGKGDFRILMCTKVTMDDFLTAHREMGRIQYDMAYAAQPFLLRNGANEGFHEAVGEIMSLSAATPKHLKSIGLLSPDFQEDNETEINFLLKQALTIVGTLPFTYMLEKWRWMVFKGEIPKDQWMKKWWEMKREIVGVVEPVPHDETYCDPASLFHVSNDYSFIRYYTRTLYQFQFQEALCQAAKHEGPLHKCDISNSTEAGQKLFNMLRLGKSEPWTLALENVVGAKNMNVRPLLNYFEPLFTWLKDQNKNSFVGWSTDWSPYADQSIKVRISLKSALGDKAYEWNDNEMYLFRSSVAYAMRQYFLKVKNQMILFGEEDVRVANLKPRISFNFFVTAPKNVSDIIPRTEVEKAIRMSRSRINDAFRLNDNSLEFLGIQPTLGPPNQPPVSSGGGGSGGGGSGGGGSEPKSSDKTHTCPPCPAPPVAGPSVFLFPPKPKDTLMISRTPEVTCVVVGVSHEDPEVKFNWYVDGVEVHNAKTKPREEQYNSTYRVVSVLTVLHQDWLNGKEYKCKVSNKQLPSPIEKTISKAKGQPGQPREPQVYTLPPSRDELTKNQVSLTCLVKGFYPSDIAVEWESNGQPENNYKTTPPVLDSDGSFFLYSKLTVDKSRWQQGNVFSCSVMHEALHNHYTQKSLSLSPGK
For B1, the IC50 amounted to 3.9 nM in test [1]; 3.3 nM in test [2]; 0.7 nM in test [3]; 4.3 nM in test [4]; 3.6 nM in test [5].

B2: ACE2-M1-FcKO (Fc fusion)
chain: B1 chain with Y13K, V16H, Q17E, R64M
Regarding B2, the IC50 in test [1] amounted to 3.9 nM; in test [2], 1.8 nM; in test [3], 0.5 nM; in test [4], 6.9 nM; in test [5] it was 3.8 nM.
